Drawing on patent publication US20220340682A1 (Sanofi, published 2022), this text covers Kd for five molecules.

Residue numbers refer to the chain shown, from its start.

T1: hCEACAM5, human CEACAM5 ECD (35-685) (human, UniProt P06731 35-685)
T1 construct: produced in HEK293; also called human CEACAM5 protein; human CEACAM5 extracellular domain
T1 sequence: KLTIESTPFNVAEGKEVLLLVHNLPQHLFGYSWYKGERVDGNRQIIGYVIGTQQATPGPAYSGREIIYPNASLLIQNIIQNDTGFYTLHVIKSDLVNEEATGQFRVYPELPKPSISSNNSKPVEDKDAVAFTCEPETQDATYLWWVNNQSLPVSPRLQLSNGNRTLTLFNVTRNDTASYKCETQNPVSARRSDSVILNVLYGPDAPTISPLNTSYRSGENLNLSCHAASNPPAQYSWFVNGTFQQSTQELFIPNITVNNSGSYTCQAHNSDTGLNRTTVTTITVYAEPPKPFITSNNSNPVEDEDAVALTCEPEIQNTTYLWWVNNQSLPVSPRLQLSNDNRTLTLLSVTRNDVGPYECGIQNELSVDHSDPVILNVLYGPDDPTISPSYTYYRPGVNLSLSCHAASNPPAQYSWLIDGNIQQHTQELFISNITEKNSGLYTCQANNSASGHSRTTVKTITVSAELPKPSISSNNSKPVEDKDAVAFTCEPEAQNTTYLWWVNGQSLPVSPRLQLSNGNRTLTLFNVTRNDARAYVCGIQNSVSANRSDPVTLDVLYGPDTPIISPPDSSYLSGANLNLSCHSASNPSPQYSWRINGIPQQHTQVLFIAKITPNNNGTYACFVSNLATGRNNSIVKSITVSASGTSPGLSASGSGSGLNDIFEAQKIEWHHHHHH

T2: cCEACAM5, M. fascicularis CEACAM5 ECD (35-688) (Macaca fascicularis)
T2 construct: ECD followed by a 24 amino acid extension containing a His-Tag; also called cynomolgus CEACAM5; monkey CEACAM5
T2 chain: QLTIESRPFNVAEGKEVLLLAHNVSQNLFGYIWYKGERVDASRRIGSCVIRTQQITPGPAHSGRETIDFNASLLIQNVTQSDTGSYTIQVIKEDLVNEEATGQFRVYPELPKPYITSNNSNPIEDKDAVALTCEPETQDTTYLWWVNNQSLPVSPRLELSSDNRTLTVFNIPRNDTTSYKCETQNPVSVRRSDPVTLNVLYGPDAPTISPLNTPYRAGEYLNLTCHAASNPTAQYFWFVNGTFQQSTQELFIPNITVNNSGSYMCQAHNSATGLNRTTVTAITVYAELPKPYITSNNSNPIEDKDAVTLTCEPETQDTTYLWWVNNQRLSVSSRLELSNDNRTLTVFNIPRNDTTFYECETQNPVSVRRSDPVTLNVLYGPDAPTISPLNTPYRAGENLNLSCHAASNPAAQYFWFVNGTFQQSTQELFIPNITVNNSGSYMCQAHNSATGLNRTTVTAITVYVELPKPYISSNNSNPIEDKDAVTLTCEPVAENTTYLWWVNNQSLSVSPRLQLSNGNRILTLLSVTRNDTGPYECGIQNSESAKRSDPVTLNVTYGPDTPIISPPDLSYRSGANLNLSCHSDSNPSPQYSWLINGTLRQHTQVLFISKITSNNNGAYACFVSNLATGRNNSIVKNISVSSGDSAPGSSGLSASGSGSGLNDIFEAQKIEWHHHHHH

B1: huMAb2-3 (antibody, human IgG1, kappa, V domains shown)
VH: EVQLQESGPGLVKPGGSLSLSCAASGFVFSSYDMSWVRQTPERGLEWVAYISSGGGITYAPSTVKGRFTVSRDNAKNTLYLQMNSLTSEDTAVYYCAAHYFGSSGPFAYWGQGTLVTVSS
VL: DIQMTQSPASLSASVGDRVTITCRASENIFSYLAWYQQKPGKSPKLLVYNTRTLAEGVPSRFSGSGSGTDFSLTISSLQPEDFATYYCQHHYGTPFTFGSGTKLEIKR
notes: Humanized MAb2, human IgG1 / Ckappa; also called MAb2_VL1cVH1a-IgG1
B2: huMAb2-1 (antibody, V domains shown)
VH: B1 VH with G44R, A60F, V93I, S120A
VL: DIQMTQSPASLSASVGDTVTITCRASENIFSYLAWYQQKPGKSPKLLVYNTKTLAEGVPSRFSGSGSGTQFSLTISSLQPEDFGSYYCQHHYGTPFTFGSGTKLEIK
notes: Humanized MAb2 (VL1 + VH1) fused to human IgG1 and human Ckappa constant domains; also called MAb2_VL1VH1-IgG1; MAb2VL1VH1-IgG1
B3: huMAb2-2 (antibody, V domains shown)
VH: B1 VH
VL: B2 VL with T18R, Q70D, G84A, S85T
notes: Humanized MAb2 (VL1a + VH1a) fused to human IgG1 and human Ckappa constant domains; also called MAb2_VL1aVH1a-IgG1; MA2_VL1aVH1a-IgG1
B4: huMAb2-4 (antibody, human IgG1, kappa, V domains shown)
VH: B1 VH with G44R, A60F, V93I, S120A
VL: B1 VL with R18T, D70Q, A84G, T85S
notes: Humanized MAb2, human IgG1 / Ckappa; also called MAb2_VL1d VH1-IgG1; MAb2_VL1dVH1-IgG1
B5: chMAb2 (antibody, human IgG1, kappa, V domains shown)
VH: EVQLQESGGVLVKPGGSLKLSCAASGFVFSSYDMSWVRQTPEKRLEWVAYISSGGGITYFPDTVQGRFTVSRDNAKNTLYLQMNSLKSEDTAIYYCAAHYFGSSGPFAYWGQGTLVTVSA
VL: B1 VL with D17E, R18T, P40Q, K45Q, R52K, D70Q, T74K, S76N, A84G, T85S
notes: Chimeric, human IgG1, Ck isotype; also called MAb2-IgG1; chimeric MAb2

The first experiment concerns the target T1, hCEACAM5, human CEACAM5 ECD (35-685). The experiment is described as follows: SPR (BIAcore 2000), mAb captured by anti-human Fc, antigen injected 1-500 nM. The method, then:
(§1) The binding kinetics of humanized anti-CEACAM5_MAb2 variants, compared with chimeric MAb2, to recombinant human CEACAM5 (hCEACAM5) and cynomolgus monkey CEACAM5 (cCEACAM5) were determined by surface plasmon resonance assay using a BlAcore 2000 (BlAcore Inc., Uppsala, N.J.).
(§2) Briefly, a CM5 BlAcore biosensor chip was docked into the instrument and activated with 70 μL of 1:1 NHS/EDC at room temperature. A mouse anti-ahuman Fc IgG1 (BlAcore # BR-1008-39) (50 μg/mL in […] acetate buffer, pH5) were immobilized on the activated chips in all flow cells. The immobilization was carried out at a flow rate of 10 μL/min up to saturation. The chip was then blocked by injection of 70 μL of ethanolamine-HCl, pH8.5, followed by one wash with 3M MgCl2. To measure the binding of anti-CEACAM5 mAbs to the human CEACAM5 protein or cynomolgus CEACAM5 protein, antibodies were used at 1-5 μg/mL in BlAcore running buffer (HBS-EP). Antigens (human CEACAM5 or cynomolgus CEACAM5) were injected from 1 to 500 nM. Following completion of the injection phase, dissociation was monitored in a BlAcore running buffer at the same flow rate for 600 sec. The surface was regenerated between injections using 2×5 μL MgCl2 3M (2×30s). Individual sensorgrams were analyzed using BlAevaluation software.
Take B1: the affinity, expressed as Kd, was 11.7 nM.

On to B2, for which binding was put at a Kd of 9.8 nM.

Regarding B3, the Kd is 24.5 nM.

With B4, binding was put at a Kd of 6.9 nM.

B5 gave a Kd of 9.9 nM.

The next experiment has as its target T2, cCEACAM5, M. fascicularis CEACAM5 ECD …. The experiment is described as above. The method, then: as §1, §2
Regarding B1, the dissociation constant (Kd) is 73.5 nM.

For the molecule B2, the Kd is 41.7 nM.

B3 returned a Kd of 96 nM.

Molecule B4 yielded a Kd of 38.6 nM.

In turn, B5 showed a dissociation constant (Kd) of 52.3 nM.
